According to the DeepSol protein solubility set:

Test: soluble on expression in E. coli; label from the status in PepcDB or PDB records

Row | Sequence | soluble on expression in E. coli
1 | MSLSFSMKIKNIPYYVATRVVKRIQSWLGLNTLGARAIVTNAEGHVLLVKHTYQPHWYLPGGGVKKGESTKAAVIRELHEEVGLVVAEQDVILFGIYHHKYLGVNDYPVIYIVKNFTSHVTHSGEIEQIGWFSLDALPEMVSPGTKRRLGEYFDNNPISEGHHHHHH | not soluble
2 | MSKRNTQQRRHNIIADLNAQGEVSVDSLAKQFDTSEVTIRKDLAALETSGLLLRRYGGAVALPSEITEAKVDQLSQQKLHIAKKAAMLIRDHNRIIIDSGQTTSALVSELANKKGLVVMTNALSIANEIHALENEPTLLMTGGTWDATSEAFQGQVAEQVLRSYDFDQLFIGADGIDIKRGTTTFNELIGLSRVMAEVAREVIVMVESAKITKKIPNLELNWQQIHTVITDDGLSEEMRIALTEQGVKLIIAKG | not soluble
3 | MSLPTTSSPLTNDQEFAKPVRNGKIFENPKSFTNWGGRPGLTNIFKLVLRETSHENLPSDKKVLDSTLPVHNITADDFHSESGLFATWLGHATVLVDLEGVKFVTDPVWADRASFTSFAGPKRYRPPPMKLEDLPDLDFAVVSHDHYDHLDADAVKRITNLNPQIKWFVPLGLKKWMKNQGIGADGSNTVTELNWGESSEFVKNGKTITIWCLPAQHSGQRGLSDHNHRLWSGWAVIGENRRFYFPGDTGFCDVEFKKIGEKLGPFDLAAIPIGAYEPRWFMKSHHINPDEAVEVHKLVRARNSIGIHWGTYPMGTTEYYLEPRDKLKELMDAREDLKDTSFVTVDMGEIWEASDR | not soluble
4 | GMNISNLINADVDEKGFVSDKLRDNFFQIVRNRPENRTCFDCESRNPTWLSLSFAVFICLNCSSDHRKMGVHISFVRSSDLDKFTPIQLVRMDIGGNGRARNYFKQVLGVNFSPKTKEYASSICGRQYKQILDSEISE | soluble
5 | DDAENIEYKVSISGTSVELTCPLDSDENLKWEKNGQELPQKHDKHLVLQDFSEVEDSGYYVCYTPASNKNTYLYLKARVGSADDAKKDAAKKDDAKKDDAKKDGSQTNKAKRALEVLEAEDKVILKCNSSITLLQGTAGQEVSDNKTLNLGKRIEDPRGMYQCGENAKSFTLQVYYRM | soluble
6 | MSLANLNIFGQEVGADVEGWTTRAFPEKVVLKGNTCRLEPLDRERHGSELFSAYSEAGQKLWTYLPAGPFTNLEEYLEFIKELNETKDTVPFAIINKETERAVGTLCLIRIDEANGSLEVGYVVFSPELQKTIIATEAQFLLMKYVFDDLQYRRYEWKCDSLNGPSRRAAMRLGFKYEGTFRQVVVYKGRTRDTQWFSIIDKEWLRIRKTFEEWLDKTNFENGKQKRGIAAIRESLSNEGHHHHHH | soluble
7 | MSASETRSKVLTDESTGSTAIEESPRNRQNEEPEQTSQTENLQTDPFNARISEIFEKQTVAFERQMMIKEEEFMSQMKEREEVKLKDLETKLENFEKWRKEIRLEGAKELNIKLHSEPEVSAELEHEGGLQEK | not soluble
8 | MGSDKIHHHHHHMYELYFNWKFIWKKVGLASLTTNSTTYHSEPAYRVNLLAISSKEADFFFKMRDTLTSVMTEKLEPRYFRKGAEEGKRYTVDEARFSFRNGMCYVNQKRVRKDGSITETEQSDNRCIYDMLTILAQARSFDPKEYTIGQRIQFPMATGRRVEEQTLIYRGIKKITAENDTTYRCLIFSLVEYNKKGKEKEVITFYVTDDRNHLPVRLDMHLNFGSAKAFLKSVSGYRHPQTSIVTK | not soluble
9 | MAAKVEPFWKRKTLAQLDQDEWESLCDGCGLCCLQKLEDEDDGSVYYTRIACKLLDLQSCRCTNYAERIRFVPDCIQLTPAQADEFQWLPPTCGYRLVAEGKDLPLWHHLVCGDPERVHKERISQSGRMLSETQVAEDDWEDYLIFRAG | not soluble
10 | NRYAKILVEKEKNRRTVMEQKMELESYKKVNVANDRYITLLHDTNHHIKTVYSLLKKDKKDDAMNMLSKLFDKYEKAEMIEYSGNTILNTILSDYKEKSSKENIECDIFVERGFNIEYVDEIDLVAMLSNLLSNSYEAAAKSDMKKIRIQMFMQNDGSFSVIKIENSYTSMIVEEDSVLKTTKQNKEFHGLGIKSVQQIAEKYNGWLSSTWSDNVFKSVLILENSMC | not soluble
11 | MDASSGAAADPAEGSAPEGAASGGTGAPNGTDPLDAPNDLGNVPGESAGAGAGAASSGASRSAIMAVTAGGSQGPAVSWGEAADSRSSTWETEGRAAGSLARQAVTRSCSGCGRAGRSGSAEVMRCTTVASESPSKGPRPQAAKTSTEPRENTSLGGPRSVAPRACSGDMKPGVPITEPAAVSAVASTARAMPKSMIRGPSAARITLPGFRSRCTSPQEWMAARPSASPAPSRSTVCSGSGPCASTASCSDGPGT | not soluble
12 | MDELTAFNQCLAWLTHTTALPEHLDGLVLCGNSLPATATAAGQLAQDYQLPLLIIAGGVGHATKYLRQNLNLPKSQASEAELMATLVRKTGYQGSIRLDKTSTNTGSNATHARALAPTDWRHVLLVQDPLLARRTTLTFSANWSNANFIRYAPATLQLNRLQPMQFTPNTIVAGWQPAYFTELLLGEFQRLVDTPTGYGPRGQGFIAHVDIPEEVLAAARYLQSQSLHRQRLEHHHHHH | soluble
13 | MTQEAIFKAIREREMKVLNIQVTSSCNYACGMCPFHGDGYSGEYFDERPTIRRDMSLDEIKLILEKASMEGFEWIDLTPNGEFFTHKQWYQILSLIKEFGLKIMITSNGGLLGEEDIKRACEVGVDHIVISVDSLSYESYKKIRKPATKLAFERAIHAPLYFKKYGGDSIYVQIQITEQPEFPHEALGVLDFYKDKGLNQISLKKMFVTGEDGIGHIGVEKLEYTHGKCKAYGSPIVMTDGTVLPCCGAFYFYPKLGEKIPNIFNHTIFESARILDDLYERDSLFGSYCRNCSLYDSSRKAAPVKFIFGDYYAEQTLFETRYFILPKYLRFLPSLAILWLYKKGYARKIKQWLVAAQ | not soluble
14 | MNLMLCCTPLQVLIARKIIELHPNEQFFGVMFGGVWDKKRTLYASKLAEVCSDSMNIDTGKDLKGFDFLKLMRQLKNKITHKGFDKVFLANLNSLWLQTYLSHVSFKELYTFDDGSDNIFPHPNLLREPGTFKYKLIKAFIGDKYSVNKLFKKIKKHYTVYPNYKNIVSNIEPISLWDNQIDCEIDGEVSFFIGQPLLNTKEENISLIKKLKDQIPFDYYFPHPAEDYRVDGVNYVESELIFEDYVFKHLSNKKLFIRSSVLLHLIYVILMKSVLLERVFQDGNSVTIHFQTLDRFIRKFLEHHHHHH | not soluble
15 | MKMDTGALTFQQKIYWLVKQIPLGRVATYGQIAALCGWPRHGRYVGYALYRVAPNSDIPWHRVVNAQGKISYAPQRRGTDELQRWRLAAEGIIFTAGLEHHHHHH | not soluble
16 | MFARIESGKIIAQKRKELGKTQKVLAEETNVNKSIISQIENGKFSGSLRVYEKYINGLGLELAVRPIKSKIPDFDNLHHLFPDE | not soluble
17 | MTAPGSVPLTVIGGFWGAGKTTLLNYLLKVQHSERVLVMVNDFGSINIDAELLDQGRHDRPGVVRLQNGCVCCSIGGDLMQAFLQVMSMPDRPDRIIVEASGVADPTRIAQIGRVSGGLSDEGVITLVDASAVRALAADKYVGDIVRQQILSADIVLLNKLDLSSDAEIVETRAWLRDLAPRTRVVSCIHGEVDAVSVLGIGAGKVAPDTAGGPVDVPVPDLRRASTRHADTFHSSTLATEHRFDRRRIEYALDALPQTVLRGKGFVELEGEATPALLQLCGSRWTLDPVSTPAPPAGTHLVFIATGGRGVPRFDAPSHFEQALASRDAASADTSNLEHHHHHH | not soluble
18 | MVLTDEQRQAIAKKREEAIRRAAAYREREMQAAANATASTSSAAPPAPPKPVIPVMFSQNRQNFQPMKPTMNNSTKQSTINNYIKQVQKPEPTSLIKPTIGVKLKLDIGDRIKIEFYPFHSAVIDLIKQVPSRNYDPAKRSWTVASSDHITISNILKNATAVKVELEPLPQNIIGLTNFKPKAAPSDLNTVMDPSLIERLFPYQKEGVIFALERDGRILLADEMGLGKSVQALTIARYYKADWPLLIVCPASVKGAWKKQLNTFFPIIHRIFIVDKSSDPLPDVCTSNTVAIMSYEQMVLKHDILKKEKYRTIIFDESHMLKDGKARRTKVATDLSKVALHVILLSGTPALSRPSELFTQIRLIDHKLFTNFHEFAIRYCDGKQGRFCFEAKGCTNSEELAAIMFKRLMIRRLKADVLKDLPEKRREVVYVSGPTIDARMDDLQKARADYEKVNSMERKHESLLEFYSLTGIVKAAAVCEHILENYFYPDAPPRKVLIFAHHQIVLDTIQVEVNKRKLGSIRIDGKTPSHRRTALCDSFQTDDNIRVAVLSITAAGVGITLTAASVVVFAEIHFNPGYLVQAEDRAHRVGQKDSVFVQYLIAKKTADDVMWNMVQQKLDVLGQVSLSSDTFRTADKMHLRFNDAAQPGIAEYLKKTPDTTIDEWEDPVEEKEDDDLEIICDSPAPKRIKN | not soluble
19 | MSITPHRLPVAPVIVREAYLSLLRKGWRPGDRDLKTPRNVKIETGIIEKAEGSALVKLGKTQVIAGVKAGVGAPFKDTPNQGVLTVHAEFVPLASPVFEPGPPDENAIELARVVDRSLREVGAVDLESLVIRPGEKVWVLWVDLYIIDHDGNLFDASMLATMAVLLTARLPRYEESETGEIIISKEGEGEELKVKTRVVTVTTAKIDRYIVVDPNIEEEAVSDVRLVTAVDENGRIVGLQKTGMGSLTEADIETMIGYSLEASKVYFKALEEAIKP | soluble
20 | MWKRLCAGLSCRKFINQVTMTSVNKNRKSRDENEMAKYNEKELADTSKFLSFVLRHKPEAIGIVLDREGWADIDKLILCAQKAGKRLTRALLDTVVATSDKKRFSYSSDGRCIRAVQGHSTSQVAISFAEKTPPQFLYHGTASRFLDEIKKQGLIAGERHYVHLSADEATARKVGARHGSPVILTVKAQEMAKRGLPFWQAENGVWLTSTVAVEFLEW | soluble
21 | MNFFSLHPNVYATGRPKGLIGMLENVWVSNHTPGEGTLYLISGFSNYNGGVRFYETFTEHINQGGRVIAILGGSTSQRLSSRQVVEELLNRGVEVHIINRKRILHAKLYGTSNNLGESLVVSSGNFTGPGMSQNIEASLLLDNNTTQSMGFSWNDMISEMLNQNWHIHNMTNATDASPGWNLLYDERTTNLTLDETERVTLIVTLGHADTARIQAAPGTTAGQGTQYFWLSKDSYDFFPPLTIRNRRGTKATYSSLINMNYIDINYTDTQCRVTFEAENNFDFRLGTGKLRYTGVAKSNDIAAITRVGDSDYELRIIKQGTPEHSQLDPYAVSFIGNRGKRFGYISNEEFGRIIGVTF | soluble
22 | MAGDPMRRPHMSDATLVYDDDCGFCTWWADFIGERSDLEIVGFSALGDDLLERLPDDYESCSHLVTEEDVYSCGKSIETALTYTELGKPARPLVSFLRQFEDYERFRERAYRQVADNRSKWGKVMSKTPPARRDNSDLEHHHHHH | not soluble
23 | MKACGIIVEYNPFHNGHRYHAQQARQQSGAEVVIAIMSGNFLQRGEPALLDKWARAEEALQNGVDLVIELPTAWSVQSADYFAKGGIKLLQALQCESLCFGTDSTSAIDYAAFGQFVQENQSLIDQTFHALTDKQLSYPQKMTAVFRQVYPESRFDFSSPNHILGMSYAKENATYPTPMTLYPIARKQAGFHDATISGKVASATAIRQSVFQQEITQVLPTVPSITAQHLQTQTMISWENYWPFLKYKIVQSSLEELQAIYQMTEGLEYRLKDQIQAAGSFHELMERMKTKRYTWTRLQRLATYILLNMTKEEVETVWQNSYLHVLGFTPKGQAYLKETKAQIQLPVISKVSKENRAMLSLDIRANQLYQMGDSSLKEQNFGRFPLRFSPDT | not soluble
